Consider one molecule from PMC4786644, “The HMGB1 protein induces a metabolic type of tumour cell death by blocking aerobic respiration” (Nature Communications, 2016).

In the test the target is T1, human pyruvate kinase isoform M2 (PK M2) (human, UniProt P14618-1 1-531).
T1 construct: Pyruvate kinase isoform M2, human; used at 2 uM in solution
The test is described as follows: ultrafiltration; equimolar HMGB1 and PK M2 (2 uM each) mixed in 300 ul, filtrated (14000 g, 4 C) to 15 ul in an Amicon Ultra 0.5 ml 30 k device; filtrate and retentate analysed by Western blot; HMGB1 and PKM2 also analysed alone. Particulars: both partners purified. (In western blotting, separated proteins are transferred to a membrane and probed.)

T1 sequence (P14618 whole entry, canonical isoform): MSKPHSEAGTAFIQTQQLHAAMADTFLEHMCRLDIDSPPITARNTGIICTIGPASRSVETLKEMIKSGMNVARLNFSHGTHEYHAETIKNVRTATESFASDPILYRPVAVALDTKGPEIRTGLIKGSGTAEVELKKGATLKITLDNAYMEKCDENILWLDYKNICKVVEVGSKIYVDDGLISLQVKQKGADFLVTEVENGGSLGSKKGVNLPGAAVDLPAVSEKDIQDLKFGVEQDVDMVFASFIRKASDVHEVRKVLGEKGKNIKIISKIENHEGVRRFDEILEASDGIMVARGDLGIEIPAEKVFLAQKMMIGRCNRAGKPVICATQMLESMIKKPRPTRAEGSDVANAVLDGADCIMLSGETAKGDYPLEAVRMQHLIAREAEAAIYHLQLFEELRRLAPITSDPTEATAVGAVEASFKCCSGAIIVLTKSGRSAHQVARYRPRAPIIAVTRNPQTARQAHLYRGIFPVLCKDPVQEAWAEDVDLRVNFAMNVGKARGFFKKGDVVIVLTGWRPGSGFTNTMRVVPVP

B1: recombinant human HMGB1 protein (high-mobility group box 1) (natural protein, UniProt P09429 1-215, looked up)
chain: MGKGDPKKPRGKMSSYAFFVQTCREEHKKKHPDASVNFSEFSKKCSERWKTMSAKEKGKFEDMAKADKARYEREMKTYIPPKGETKKKFKDPNAPKRPPSAFFLFCSEYRPKIKGEHPGLSIGDVAKKLGEMWNNTAADDKQPYEKKAAKLKEKYEKDIAAYRAKGKPDAAKKGVVKAEKSKKKKEEEEDEEDEEDEEEEEDEEDEDEEEDDDDE
notes: High-mobility group box 1 protein, human, recombinant; the only recombinant human HMGB1 named is from Sigma-Aldrich; also called rhHMGB1; source: bought: Sigma-Aldrich (recombinant human HMGB1; human HMGB1 protein produced in E. coli)
Consider B1, for which the binding result is “binds”.
